From publication PMC5605520, “Ylehd, an epoxide hydrolase with promiscuous haloalkane dehalogenase activity from tropical marine yeast Yarrowia lipolytica is induced upon xenobiotic stress” (Scientific Reports, 2017)

Legend:
Ylehd = molecular target: T1, Ylehd (Yarrowia lipolytica, UniProt Q6C598); assay: spectrophotometric residual epoxide assay, […] nm; assay type: biochemical; conditions: epoxide hydrolase activity; 50 mM Tris-sulphate, pH 8.0, 30 °C
T1 construct: gene YALI0_E19899g; full-length ORF in pET28a, His-tagged, E. coli BL21AI; 352 amino acids; 43 kDa monomer; likely dimer at pH 8.0 (EH), tetramer at pH 4.5 (HLD)

[1] = molecular target: Ylehd (epoxide hydrolase with promiscuous haloalkane dehalogenase activity from Yarrowia lipolytica NCIM 3589) (Yarrowia lipolytica NCIM 3589); assay: SEC; Superdex S200 10/300GL equilibrated with 50 mM Tris-sulphate buffer pH 8.0; mass from calibration with proteins of known molecular mass
[2] = molecular target: Ylehd (epoxide hydrolase with promiscuous haloalkane dehalogenase activity from Yarrowia lipolytica NCIM 3589) (Yarrowia lipolytica NCIM 3589); assay: SEC; Superdex S200 10/300GL equilibrated with 50 mM sodium acetate buffer pH 4.5; mass from calibration with proteins of known molecular mass

Compound	Km (Ylehd) [µM]	stoichiometry N [1]	stoichiometry N [2]
CCCCCCC1CO1 (stereo not drawn) [1,2-Epoxyoctane]	500 ± 45	–	–
Ylehd (epoxide hydrolase with promiscuous haloalkane dehalogenase activity from Yarrowia lipolytica NCIM 3589) (enzyme)	–	2	4
